Experimental data: publication PMC11281603

Biological target: polymeric Ig receptor (pIgR) fused to the FLAG tag (UniProt P01833)
Assay: flow cytometry on cells

Chain of UniProt P01833 (P01833 19-764): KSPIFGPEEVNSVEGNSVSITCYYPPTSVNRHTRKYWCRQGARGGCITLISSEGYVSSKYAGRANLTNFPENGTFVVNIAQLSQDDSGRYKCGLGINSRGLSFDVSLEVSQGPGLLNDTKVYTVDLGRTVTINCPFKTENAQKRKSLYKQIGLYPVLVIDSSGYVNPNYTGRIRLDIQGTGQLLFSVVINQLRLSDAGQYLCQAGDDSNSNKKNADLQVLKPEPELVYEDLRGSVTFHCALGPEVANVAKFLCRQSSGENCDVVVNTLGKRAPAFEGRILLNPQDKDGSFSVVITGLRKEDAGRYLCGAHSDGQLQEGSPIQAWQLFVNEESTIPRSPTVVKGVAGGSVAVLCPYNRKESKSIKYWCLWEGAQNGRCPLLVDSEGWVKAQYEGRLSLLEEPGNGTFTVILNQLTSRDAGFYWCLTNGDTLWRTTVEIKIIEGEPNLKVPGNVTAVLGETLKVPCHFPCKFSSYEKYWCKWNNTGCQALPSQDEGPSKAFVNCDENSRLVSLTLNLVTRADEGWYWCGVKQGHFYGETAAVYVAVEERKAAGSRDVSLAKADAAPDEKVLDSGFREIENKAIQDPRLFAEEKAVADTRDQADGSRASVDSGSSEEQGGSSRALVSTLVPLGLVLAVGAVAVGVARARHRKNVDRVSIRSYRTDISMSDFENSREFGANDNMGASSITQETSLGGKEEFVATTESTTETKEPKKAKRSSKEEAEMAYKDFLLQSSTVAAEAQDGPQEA

Q: For “IgA from human colostrum (from UniProt P01591 23-159) (ligand)”, which mean percent binding to pIgR-expressing cells, ORF8-expressing cells is on record?
A: Its mean percent binding to pIgR-expressing cells, ORF8-expressing cells is 36.9%.

Q: What about the mean percent binding to pIgR-expressing cells, control cells of the same substance?
A: Its mean percent binding to pIgR-expressing cells, control cells is 59.6%.

Q: And the percent ORF8 binding left with 10 ug/mL IgA?
A: The percent ORF8 binding left with 10 ug/mL IgA was 18%.

Q: IgM from human serum (ligand) was tested. Which mean percent binding to pIgR-expressing cells, ORF8-expressing cells did it give?
A: Its mean percent binding to pIgR-expressing cells, ORF8-expressing cells is 25.1%.

Q: What about the mean percent binding to pIgR-expressing cells, control cells of the same substance?
A: Its mean percent binding to pIgR-expressing cells, control cells is 33.9%.
